Measurements from patent US20190343963A1 (published 2019).
Substitutions are numbered along the chain they refer to. Numbers in names are those of the source.

What was measured:
FLAG-tagged human IL-13 [1] = molecular target: T1, FLAG-tagged human IL-13 (human, UniProt P35225 35-146); experiment: competition ELISA; 1 h incubation
FLAG-tagged human IL-13 [2] = molecular target: T1, FLAG-tagged human IL-13; experiment: competition ELISA; 24 h incubation
FLAG-tagged human IL-13 [3] = molecular target: T1, FLAG-tagged human IL-13; experiment: competition ELISA; 1 h incubation; remark: listed apart in the source
FLAG-tagged human IL-13 [4] = molecular target: T1, FLAG-tagged human IL-13; experiment: competition ELISA; 24 h incubation; remark: listed apart in the source

T1 sequence (P35225 35-146): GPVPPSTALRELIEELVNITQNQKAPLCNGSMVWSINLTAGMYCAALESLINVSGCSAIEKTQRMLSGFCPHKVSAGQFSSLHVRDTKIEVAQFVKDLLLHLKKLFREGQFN

B1: SH111 D154N ΔK (protein)
chain: SSYSFDCTCTAAGTFAYVYPNRFGTVYLCGAFWQAPTTGTDSQAGTLVHESSHFTRNGGTDDYAYGQAAAQSLATMNPDQAVMNANNHEYFSENNPAQSAAAGGGGSGDLGRRLLEAARAGQDDEVRILMANGADVNAADYFSHTPLHLAARNGHLEIVEVLLQYGADVNASDFAGRTPLHLAANDGHLEIVEVLLQHGADVNAQDIFGRTPADIAADNGHEDIAEVLQRAAGGGGSGGGGSGGGGSGGGGSGGGGSGGGGSGGGSSALDRRLLEAARAGQDDEVRILMANGADVNARDSYGSTPLHLAAREGHLEIVEVLLQYGADVNAADFIGDTPLHLAAYRGHLEIVEVLLQYGADVNASDITGETPLHLAAQIGHLEIVEVLLQHGADVNAQDIFGRTAFDISIDNGNEDLAEILQRAA
EC50 (FLAG-tagged human IL-13 [1]): 0.802 nM | EC50 (FLAG-tagged human IL-13 [2]): 0.015 nM

B2: IL-13 DARPin ΔK (protein)
chain: ALDRRLLEAARAGQDDEVRILMANGADVNARDSYGSTPLHLAAREGHLEIVEVLLQYGADVNAADFIGDTPLHLAAYRGHLEIVEVLLQYGADVNASDITGETPLHLAAQIGHLEIVEVLLQHGADVNAQDIFGRTAFDISIDNGNEDLAEILQRAA
EC50 (FLAG-tagged human IL-13 [1]): 13.7 nM | EC50 (FLAG-tagged human IL-13 [2]): 21.2 nM

B3: 111 7g11 Alb22 (protein)
chain: TYNGCSSSEQSALAAAASAAQSYVAESLSYLQTHTAATPRYTTWFGSYISSRHSTVLQHYTDMNSNDFSSYSFDCTCTAAGTFAYVYPNRFGTVYLCGAFWQAPTTGTDSQAGTLVHESSHFTRNGGTDDYAYGQAAAQSLATMNPDQAVMNADNHEYFSENNPAQSAAAGGGGSGDLGRRLLEAARAGQDDEVRILMANGADVNAADYFSHTPLHLAARNGHLEIVEVLLQAGADVNASDFAGKTPLHLAANDGHLEIVEVLLQHGADVNAQDIFGRTPADIAADAGHEDIAEVLQRLNGGGGSGGGGSGGGGSGGGGSGGGGSGGGGSGGGSSGLDRRLLEAARAGQDDEVRILMANGADVNATDEFDSTPLHLAARHGHLEIVEVLLQYGADVNAADFIGDTPLHLAAYRGHLEIVEVLLQYGVDVNADDHGDTPLHLAASTGHLEIVEVLLQHGADVNAQDIFGRTAFDISIDNGNEDLAEILQRAA
EC50 (FLAG-tagged human IL-13 [3]): 0.019 nM | EC50 (FLAG-tagged human IL-13 [4]): 0.0036 nM

B4: 111 7g11 Alb22 NQ (protein)
chain: ATYNGCSSSEQSALAAAASAAQSYVAESLSYLQTHTAATPRYTTWFGSYISSRHSTVLQHYTDMNSNDFSSYSFDCTCTAAGTFAYVYPNRFGTVYLCGAFWQAPTTGTDSQAGTLVHESSHFTRNGGTDDYAYGQAAAQSLATMNPDQAVMNANNHQYFSENNPAQSAAAGGGGSGDLGRRLLEAARAGQDDEVRILMANGADVNAADYFSHTPLHLAARNGHLEIVEVLLQAGADVNASDFAGKTPLHLAANDGHLEIVEVLLQHGADVNAQDIFGRTPADIAADAGHEDIAEVLQRLNGGGGSGGGGSGGGGSGGGGSGGGGSGGGGSGGGSSGLDRRLLEAARAGQDDEVRILMANGADVNATDEFDSTPLHLAARHGHLEIVEVLLQYGADVNAADFIGDTPLHLAAYRGHLEIVEVLLQYGVDVNADDHGDTPLHLAASTGHLEIVEVLLQHGADVNAQDIFGRTAFDISIDNGNEDLAEILQRAA
EC50 (FLAG-tagged human IL-13 [3]): 0.075 nM | EC50 (FLAG-tagged human IL-13 [4]): 0.0069 nM

B5: SH111 wt ΔK (protein)
chain: TYNGCSSSEQSALAAAASAAQSYVAESLSYLQTHTAATPRYTTWFGSYISSRHSTVLQHYTDMNSNDFSSYSFDCTCTAAGTFAYVYPNRFGTVYLCGAFWQAPTTGTDSQAGTLVHESSHFTRNGGTDDYAYGQAAAQSLATMNPDQAVMNADNHEYFSENNPAQSAAAGGGGSGDLGRRLLEAARAGQDDEVRILMANGADVNAADYFSHTPLHLAARNGHLEIVEVLLQYGADVNASDFAGRTPLHLAANDGHLEIVEVLLQHGADVNAQDIFGRTPADIAADNGHEDIAEVLQRAAGGGGSGGGGSGGGGSGGGGSGGGGSGGGGSGGGSSALDRRLLEAARAGQDDEVRILMANGADVNARDSYGSTPLHLAAREGHLEIVEVLLQYGADVNAADFIGDTPLHLAAYRGHLEIVEVLLQYGADVNASDITGETPLHLAAQIGHLEIVEVLLQHGADVNAQDIFGRTAFDISIDNGNEDLAEILQRAA
EC50 (FLAG-tagged human IL-13 [1]): 0.065 nM | EC50 (FLAG-tagged human IL-13 [2]): 0.002 nM

B6: SH111 E157Q ΔK (protein)
chain: B5 chain with E157Q
EC50 (FLAG-tagged human IL-13 [1]): 0.08 nM | EC50 (FLAG-tagged human IL-13 [2]): 0.003 nM

B7: SH111 NQ ΔK (protein)
chain: B5 chain with D154N, E157Q
EC50 (FLAG-tagged human IL-13 [1]): 0.705 nM | EC50 (FLAG-tagged human IL-13 [2]): 0.027 nM
